Assay [1] deals with T1, CD3-ε, full length, GFP2-fused (human, UniProt P07766).
T1 construct: CD3-ε, full length; source: CHO-S, lentiviral transduction, co-expressed with the other subunits; purified as the complex from LMNG-solubilised membranes (Strep-Tactin XT, SEC in GDN)
Kind of assay: cryo-EM structure; subunits co-expressed in CHO-S and purified as one complex in detergent; tenfold molar excess of UCHT1 Fab added before a final SEC in 10 mM HEPES pH 7.4, 150 mM NaCl, 0.02% GDN; 3.01 Å consensus map and 3.39 Å TM-focused map. The conditions noted are these: both partners purified.

The target of the next assay is T2, CD3ε on Jurkat T cells (human (endogenous in Jurkat), UniProt P07766).
T2 construct: CD3-ε as part of the TCR–CD3 complex at the cell surface; source: endogenous, on Jurkat T cells (TCR transductants)
T2 sequence (P07766 23-207): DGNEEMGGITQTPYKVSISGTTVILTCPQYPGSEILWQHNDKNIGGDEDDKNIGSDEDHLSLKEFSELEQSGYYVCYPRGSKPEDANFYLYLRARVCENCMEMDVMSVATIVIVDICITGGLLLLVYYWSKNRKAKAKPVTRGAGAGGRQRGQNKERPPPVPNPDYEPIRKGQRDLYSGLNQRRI
Kind of assay: flow cytometry on cells; cells pre-incubated with increasing concentrations of UCHT1 Fab, then stained with fluorescent UCHT1 antibody. To be noted: one partner purified.

T1 sequence (P07766 23-207): as above

B1: Fab fragment of the anti-human CD3ε murine antibody UCHT1 (Fab, V domains shown)
VH: EVQLQQSGPELVKPGASMKISCKASGYSFTGYTMNWVKQSHGKNLEWMGLINPYKGVSTYNQKFKDKATLTVDKSSSTAYMELLSLTSEDSAVYYCARSGYYGDSDWYFDVWGQGTTLTVFS
VL: DIQMTQTTSSLSASLGDRVTISCRASQDIRNYLNWYQQKPDGTVKLLIYYTSRLHSGVPSKFSGSGSGTDYSLTISNLEQEDIATYFCQQGNTLPWTFAGGTKLEIK
notes: VH domain of UCHT1; C-γ1 domain of murine IgG1, residues 1-103 of P01868-1; Vκ domain of UCHT1; murine constant kappa domain; Both chains were expressed under a modified cPTPRσ signal peptide ([residues removed], last two residues changed for a KpnI site); also called UCHT1 Fab; source: CHO-K1, lentiviral transduction, purified from culture supernatant (CaptureSelect C-tagXL, Superdex 200)
In the case of B1, the binding result (in assay [1]; with CD3ε on Jurkat T cells) was “binds” in each case.

Source of the values: paper PMC11485255, “Structure of a fully assembled γδ T cell antigen receptor” (Nature, 2024).
